Assay results reported in PMC5499601 (Nucleic Acids Research, 2017).

How the values were obtained:
Test in all cases: EMSA
[1] = target: T1, BsSpo0J R82A (UniProt P26497 1-282, R82A)
T1 sequence: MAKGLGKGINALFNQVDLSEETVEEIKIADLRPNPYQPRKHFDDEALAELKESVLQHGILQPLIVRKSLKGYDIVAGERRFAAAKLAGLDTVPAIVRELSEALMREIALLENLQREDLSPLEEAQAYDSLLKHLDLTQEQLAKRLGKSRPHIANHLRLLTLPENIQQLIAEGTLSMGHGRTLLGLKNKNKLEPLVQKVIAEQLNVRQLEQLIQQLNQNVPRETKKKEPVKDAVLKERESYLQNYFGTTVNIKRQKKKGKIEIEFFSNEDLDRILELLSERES

[2] = target: T2, BsSpo0J M104A (UniProt P26497 1-282, M104A)
T2 sequence: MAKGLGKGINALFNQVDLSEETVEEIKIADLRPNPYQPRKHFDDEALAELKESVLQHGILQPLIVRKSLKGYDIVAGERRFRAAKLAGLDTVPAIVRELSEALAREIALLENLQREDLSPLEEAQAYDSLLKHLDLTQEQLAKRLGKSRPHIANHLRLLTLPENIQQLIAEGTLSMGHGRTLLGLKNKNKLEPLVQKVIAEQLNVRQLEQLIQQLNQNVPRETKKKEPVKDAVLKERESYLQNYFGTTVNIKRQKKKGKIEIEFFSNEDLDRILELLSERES

[3] = target: T3, BsSpo0J N112S (UniProt P26497 1-282, N112S)
T3 sequence: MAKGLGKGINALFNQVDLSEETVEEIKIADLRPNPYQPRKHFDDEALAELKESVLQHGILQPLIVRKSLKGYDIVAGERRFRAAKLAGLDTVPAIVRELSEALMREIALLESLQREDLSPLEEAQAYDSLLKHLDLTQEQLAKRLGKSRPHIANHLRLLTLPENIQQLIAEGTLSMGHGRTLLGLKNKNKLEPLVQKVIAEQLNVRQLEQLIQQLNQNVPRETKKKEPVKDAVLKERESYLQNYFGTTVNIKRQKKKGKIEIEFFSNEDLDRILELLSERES

[4] = target: T4, BsSpo0J R39A (UniProt P26497 1-282, R39A)
T4 sequence: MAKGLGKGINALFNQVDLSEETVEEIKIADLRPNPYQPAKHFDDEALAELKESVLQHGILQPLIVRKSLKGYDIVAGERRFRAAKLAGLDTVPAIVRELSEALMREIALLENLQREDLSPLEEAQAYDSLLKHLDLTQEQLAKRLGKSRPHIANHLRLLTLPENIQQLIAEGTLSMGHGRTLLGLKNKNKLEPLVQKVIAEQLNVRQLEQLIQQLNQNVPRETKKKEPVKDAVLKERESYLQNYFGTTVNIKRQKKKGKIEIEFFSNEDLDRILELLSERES

[5] = target: T5, BsSpo0J Q140R (UniProt P26497 1-282, Q140R)
T5 sequence: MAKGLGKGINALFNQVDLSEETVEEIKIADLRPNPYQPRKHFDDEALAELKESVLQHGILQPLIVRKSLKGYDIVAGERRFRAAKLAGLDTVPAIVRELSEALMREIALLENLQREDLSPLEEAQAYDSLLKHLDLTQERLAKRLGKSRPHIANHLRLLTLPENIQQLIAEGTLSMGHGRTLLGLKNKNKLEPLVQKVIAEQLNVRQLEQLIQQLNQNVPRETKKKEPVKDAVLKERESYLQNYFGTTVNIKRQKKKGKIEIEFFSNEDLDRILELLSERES

[6] = target: T6, BsSpo0J L60E (UniProt P26497 1-282, L60E)
T6 sequence: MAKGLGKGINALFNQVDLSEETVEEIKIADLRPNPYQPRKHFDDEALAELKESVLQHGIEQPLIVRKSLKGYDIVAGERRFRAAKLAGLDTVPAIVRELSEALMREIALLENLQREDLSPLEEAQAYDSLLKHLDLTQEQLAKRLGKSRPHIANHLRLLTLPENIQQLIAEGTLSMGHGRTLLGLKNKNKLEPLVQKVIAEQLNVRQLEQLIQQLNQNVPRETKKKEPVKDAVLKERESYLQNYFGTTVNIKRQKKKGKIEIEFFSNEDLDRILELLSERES

[7] = target: T7, BsSpo0J Q61A (UniProt P26497 1-282, Q61A)
T7 sequence: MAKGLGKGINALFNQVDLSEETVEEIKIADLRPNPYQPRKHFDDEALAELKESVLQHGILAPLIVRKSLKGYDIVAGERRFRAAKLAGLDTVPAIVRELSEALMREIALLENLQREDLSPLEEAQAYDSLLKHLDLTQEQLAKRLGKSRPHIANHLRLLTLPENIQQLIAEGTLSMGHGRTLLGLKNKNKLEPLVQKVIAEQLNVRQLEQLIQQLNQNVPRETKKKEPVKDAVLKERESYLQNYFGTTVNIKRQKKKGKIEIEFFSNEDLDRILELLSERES

[8] = target: T8, BsSpo0J E52R (UniProt P26497 1-282, E52R)
T8 sequence: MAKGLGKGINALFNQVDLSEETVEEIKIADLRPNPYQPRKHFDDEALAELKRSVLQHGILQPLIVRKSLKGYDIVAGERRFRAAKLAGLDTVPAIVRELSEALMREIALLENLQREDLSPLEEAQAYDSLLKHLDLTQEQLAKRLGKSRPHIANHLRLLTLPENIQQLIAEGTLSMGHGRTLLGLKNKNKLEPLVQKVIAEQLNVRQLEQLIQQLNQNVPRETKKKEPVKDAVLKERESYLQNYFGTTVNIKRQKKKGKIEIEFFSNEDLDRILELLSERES

[9] = target: T9, BsSpo0J R80A (UniProt P26497 1-282, R80A)
T9 sequence: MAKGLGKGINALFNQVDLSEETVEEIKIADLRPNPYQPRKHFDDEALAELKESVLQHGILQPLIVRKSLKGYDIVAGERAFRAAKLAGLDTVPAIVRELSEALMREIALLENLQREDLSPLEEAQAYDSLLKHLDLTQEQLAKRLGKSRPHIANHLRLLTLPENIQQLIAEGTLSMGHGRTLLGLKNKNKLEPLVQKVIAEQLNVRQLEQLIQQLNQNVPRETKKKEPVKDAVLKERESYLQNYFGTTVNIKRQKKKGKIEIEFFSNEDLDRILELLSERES

Measured: binding result

B1: 39-bp parS (dsDNA)
DNA 1: CAGTTGAATCAGAATGTTCCACGTGAAACAAAGAAAAAA
DNA 2: TTTTTTCTTTGTTTCACGTGGAACATTCTGATTCAACTG
binds: [1] | [2] | [3] | [4] | [5] | [6] | [7] | [8] | [9]
